This passage reports ratio to parent and other: sum results from paper PMC3796546.

This test concerns the target T1, Smt3 (SUMO), endogenous, Q12306.
T1 chain: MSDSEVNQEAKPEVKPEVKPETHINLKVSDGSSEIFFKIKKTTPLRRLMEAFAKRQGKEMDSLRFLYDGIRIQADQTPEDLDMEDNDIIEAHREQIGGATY
In words: co-IP with mass spectrometry. To be noted: chain shown with the change, cross-linked in vivo with formaldehyde, p value 0.04637.

B1: N-terminal 3xHA-tagged wild-type Irc20, Q06554 C1239A (protein)
chain: MSAVGALLAREYNVTAEKCDFFLENGSFDSVIAALPALNQEQETVTQKVSKNGKELINVASVNIEIPERISLSNNGRQLFKFIVDIEILPCENDNEATLVVSSDSVSLFQIGFKMENNSKIAVDKQLPLILDICAHKNQERALRNQLENRKSLERKPSRKRRKKNSNVNDPEKLLKSRIHELSLSYKDFECSPVVFRYNDSSLTWVLSFNLKLKFLNNKFNRFSVEANQILDLTFSNRDENEFERYHKHSHIHSNFIQKQFISQILEYSKDRLSKIKPFLPQSIPDLKVNLLPFQRESVEWMLIKEGHGNSLSDTPTVIDEVGLIDFMNEYYAYGYELIARSPDEVGPSLLWNKLTGYILTTEDAAHLYNQYRKERLSGDYPVCAKGVLAEEMGLGKTIEILSLILLNRRKLKDSEATFIDDENRTITKTKTTLIICPNAILKQWLEEIELHANSLKWYTYRGYNEIMKDCKTVDEAVQQLCQYDIIVTSYNIIATEVHHAEFNRSIRSRRLKSPKYDYSSPLALMQFYRIILDEVQMLRSSSTYSAKCTSLLHRIHTWGVSGTPIQNIYNFRMIMSYLKLHPFCDEVDFIRTLQEEIKLRNEAKDYTSNDFVCQLKGVRFSIKDCMNIFYRYDLCIRHSKANVASQIHIPRQHNFIIPLEFAPIEWDNYLNLWNNFLELSGYNSDGSGSPRVSNAFLNEWLSRLRYICCHALFPEILSTRQKRLHGHLSRISNIDDILISMRMDAFDSLIGYYRERFHLSIKQAQYELEISNTPAKALESFIKIRDDLMIHIRQKFNVEDPFDKSLNLSEDEDEHMDERFGEKETSSGDESDREINGAKNHDNHNNDGMLSNHLKKKGLRAMMNLLHDCYFFLGSVYYNLGTRKLEEADDKHRKEKTEEVVYSDVFPKNELEEIEENRLLEQENYANAEILRKSILSSEARKVDMTIKMARTKFAPMTSNIPLRLINIEFDHKNDYSSNLAVSRCFKSLSKLIEGLNEQTKNFNELLDELLIIIYEPVHRTEDDDSTNKIIGNEEYSTSIDSQDKIFSLLGCLEIILQNRDNILTSESEVKIPKHLVPEGSIISKYQKQLLNSLRLISGTPLRTVFDELKNSRIVRRISSSNESESTIQNFEDYLLQYEVESKSLFKYNKQVRESLKILGSIYNAKTEYYSQLQRISDSLVSLHSLSAPQLSHLIRTINKSLGGTLDAKINNIESRLIYLKNLSRLKDTLNDNQILSASICLGEVEIGAIIKCGHYFCKSCILTWLRAHSKCPICKGFCSISEVYNFKFKNSTEKREKEIQEPRREGADSSQDNSNENSIISNMSEVEKLFGNKYEQFHQINEVHQIHIKESFGAKIDFVIKLISYLRLKSEQENADPPQVILYSQKTEYLKVIGKVLKLYHIEHLACLSNTANVGETINNFKRQPSVTCLLLNVKTLGAGLNLINAKHIFLLDPILNNSDELQAMGRNNRIGQDEETFVWNFMIRNTVEENILRYKCILEERKRKEKSKKGDKYDEAQDETDNEESDDAKFEISVVDQEVSNEHLWNCFFHGSD
Turning to B1, the ratio to parent was more than 11. Also, the other: sum (parent: 0) turned out to be 11.
